Data as given in article PMC11638003, “Plant phytochrome interactions decode light and temperature signals” (The Plant Cell, 2024).
No end group written: not given here.

What was measured:
Settings in all cases: both partners purified
[1] = target: T1, Arabidopsis thaliana phytochrome B residues 1 to 982, AtPhyB (1-982) (Arabidopsis thaliana, UniProt P14713 1-982, phycocyanobilin chromophore, covalently bound); test: FRET or BRET; association kinetics at 15 °C after a 0.5-s pulse of red light (658 nm, 69 mW cm^-2, optical shutter); 20 nM PIF-mScarlet-I variant with 500 to 2,000 nM AtPhyB PCM, or 30 nM P6A-mScarlet-I with 750 to 2,500 nM AtPhyB (1-982); 50 mM Tris/HCl pH 8.0, 20 mM NaCl; pseudo-first-order, linear fit of koFR against the AtPhyB concentration; kaFR corrected for the Pfr fraction; Kd calculated from kdFR and kaFR …
T1 construct: the oligomeric state is not measured directly here; also called AtPhyB982; source: E. coli LOBSTR, purified (Co2+-NTA IMAC, anion exchange); plasmid also encodes Synechocystis sp. heme oxygenase 1 and PcyA
T1 sequence (looked up): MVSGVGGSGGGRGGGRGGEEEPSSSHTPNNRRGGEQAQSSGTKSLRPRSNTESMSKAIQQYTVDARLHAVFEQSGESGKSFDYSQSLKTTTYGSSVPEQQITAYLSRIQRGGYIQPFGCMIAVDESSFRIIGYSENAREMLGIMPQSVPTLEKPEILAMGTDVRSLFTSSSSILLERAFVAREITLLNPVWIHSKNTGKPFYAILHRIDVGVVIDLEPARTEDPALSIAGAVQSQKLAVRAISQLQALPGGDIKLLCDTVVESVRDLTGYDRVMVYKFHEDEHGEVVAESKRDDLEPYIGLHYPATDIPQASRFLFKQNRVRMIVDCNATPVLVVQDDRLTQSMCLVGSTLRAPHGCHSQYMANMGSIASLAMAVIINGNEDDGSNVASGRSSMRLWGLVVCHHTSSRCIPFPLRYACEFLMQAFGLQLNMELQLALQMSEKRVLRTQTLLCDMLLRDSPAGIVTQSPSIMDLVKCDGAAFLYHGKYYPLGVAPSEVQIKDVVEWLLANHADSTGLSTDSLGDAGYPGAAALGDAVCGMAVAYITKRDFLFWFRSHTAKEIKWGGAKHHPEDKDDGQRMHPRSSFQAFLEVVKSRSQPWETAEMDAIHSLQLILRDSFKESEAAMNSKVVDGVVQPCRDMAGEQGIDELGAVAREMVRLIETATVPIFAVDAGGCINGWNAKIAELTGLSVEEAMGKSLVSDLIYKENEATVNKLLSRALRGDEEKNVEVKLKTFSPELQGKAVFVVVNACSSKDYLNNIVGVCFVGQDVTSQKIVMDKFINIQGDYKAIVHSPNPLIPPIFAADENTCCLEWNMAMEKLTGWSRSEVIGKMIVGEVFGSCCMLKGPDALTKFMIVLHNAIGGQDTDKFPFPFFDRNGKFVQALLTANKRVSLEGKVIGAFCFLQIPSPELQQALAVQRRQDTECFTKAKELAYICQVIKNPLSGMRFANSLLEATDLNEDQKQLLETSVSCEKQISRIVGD

[2] = target: T1, Arabidopsis thaliana phytochrome B …; test: as above; remark: listed apart in the source
[3] = target: T2, Arabidopsis thaliana phytochrome B, N-terminal fragment encompassing the N-terminal extension (NTE) and the … (Arabidopsis thaliana, UniProt P14713 1-651, phycocyanobilin chromophore, covalently bound); test: FRET or BRET; equilibrium titration: 20 nM P6A-mScarlet-I with 0 to 2,000 nM AtPhyB PCM at 15 °C after red light (658 nm); 50 mM Tris/HCl pH 8.0, 20 mM NaCl, 100 μg/mL BSA; single-site binding isotherm
T2 construct: Phytochrome B, Arabidopsis thaliana, GenBank CAA35222.1; N-terminal fragment with the NTE and the PCM (nPAS-GAF-PHY), lacking PAS1, PAS2 and the HKRD; source: E. coli LOBSTR, purified (Co2+-NTA IMAC, anion exchange); plasmid also encodes Synechocystis sp. heme oxygenase 1 and PcyA
T2 sequence (looked up): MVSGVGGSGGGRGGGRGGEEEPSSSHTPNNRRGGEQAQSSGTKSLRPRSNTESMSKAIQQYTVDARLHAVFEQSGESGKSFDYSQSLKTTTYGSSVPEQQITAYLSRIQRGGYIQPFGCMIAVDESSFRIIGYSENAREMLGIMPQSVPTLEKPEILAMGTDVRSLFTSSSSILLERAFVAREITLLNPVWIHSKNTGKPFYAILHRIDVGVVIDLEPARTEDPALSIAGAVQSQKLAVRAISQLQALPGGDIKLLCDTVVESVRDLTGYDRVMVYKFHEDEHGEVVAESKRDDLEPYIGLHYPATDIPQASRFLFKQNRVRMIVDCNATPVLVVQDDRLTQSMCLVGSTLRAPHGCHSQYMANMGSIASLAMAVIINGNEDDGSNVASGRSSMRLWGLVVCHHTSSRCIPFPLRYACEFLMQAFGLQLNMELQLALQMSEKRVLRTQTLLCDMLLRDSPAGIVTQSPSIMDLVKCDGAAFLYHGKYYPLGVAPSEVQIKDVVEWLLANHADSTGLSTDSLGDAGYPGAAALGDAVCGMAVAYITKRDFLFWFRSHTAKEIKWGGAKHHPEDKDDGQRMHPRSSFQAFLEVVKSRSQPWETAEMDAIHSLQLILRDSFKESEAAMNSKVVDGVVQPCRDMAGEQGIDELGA

[4] = target: T2, Arabidopsis thaliana phytochrome B, …; test: FRET or BRET; as a5 (association and dissociation kinetics after a red-light pulse) at several temperatures up to 30 °C; values told for 30 °C or for 30 °C against 15 °C
[5] = target: T2, Arabidopsis thaliana phytochrome B, …; test: FRET or BRET; association kinetics at 15 °C after a 0.5-s pulse of red light (658 nm, 69 mW cm^-2, optical shutter); 20 nM PIF-mScarlet-I variant with 500 to 2,000 nM AtPhyB PCM, or 30 nM P6A-mScarlet-I with 750 to 2,500 nM AtPhyB (1-982); 50 mM Tris/HCl pH 8.0, 20 mM NaCl; pseudo-first-order, linear fit of koFR against the AtPhyB concentration; kaFR corrected for the Pfr fraction; Kd calculated from kdFR and kaFR …

Kd [1]: 1400 nM
Kd [2]: 1050 ± 240 nM
koff [2]: 0.095 s⁻¹
kon [2]: 90000 M⁻¹ s⁻¹
Kd [3]: 130 ± 80 nM
Kd [4]: ~900 nM
Kd [5]: 183 ± 48 nM
koff [5]: 0.11 s⁻¹
kon [5]: 610000 M⁻¹ s⁻¹
B1: P6A-mScarlet-I (Arabidopsis PIF6 residues 14 to 53, APB.A portion, fused to mScarlet-I) (domain or fragment, Arabidopsis thaliana, UniProt Q8L5W7 14-53, looked up)
chain: DQEYMELVFENGQILAKGQRSNVSLHNQRTKSIMDLYEAE-{mScarlet‑I}
notes: mScarlet-I: GenBank APD76536; source: E. coli LOBSTR, purified (IMAC, SENP2 cleavage, second IMAC, optionally anion exchange); not shown: His6-SUMO, N-terminal, cleaved; mScarlet-I, C-terminal, kept
